Test results reported in publication PMC3098852.

Assays:
[1] = molecular target: HIV-1 NefSF2 wild type, full length (1-210), C210A (HIV-1 SF2) (UniProt P03407); assay: ITC
[2] = molecular target: HIV-1 NefSF2 mutant (P76A, P79A, R81A), C210A (HIV-1 SF2) (UniProt P03407); assay: ITC; Nef (40 to 50 µM) in the cell, inhibitor protein (400 to 500 µM) in the syringe; 10 mM Tris/HCl pH 8.0, 100 mM NaCl; 25 °C
[3] = molecular target: HIV-1 NefSF2 wild type, full length (1-210), C210A (HIV-1 SF2) (UniProt P03407); assay: ITC; Nef (40 to 50 µM) in the cell, GST-fused inhibitor protein (400 to 500 µM) in the syringe; 10 mM Tris/HCl pH 8.0, 100 mM NaCl; 15 °C
[4] = molecular target: HIV-1 NefSF2 (Δ1-44), C210A (HIV-1 SF2) (UniProt P03407); assay: ITC
[5] = molecular target: HIV-1 NefSF2 (Δ1-58), C210A (HIV-1 SF2) (UniProt P03407); assay: ITC
[6] = molecular target: HIV-1 NefSF2 (Δ1-27), C210A (HIV-1 SF2) (UniProt P03407); assay: ITC
[7] = molecular target: GST-NI3-9, Hck-SH3 (VSWSPD) - polyGly linker - CD4 cytoplasmic tail (human) (UniProt P08631); assay: SPR; GST-NI3-9 held on a CM5 chip via an anti-GST antibody; hexa-histidine tagged Nef 400-1000 nM flowed at 5 µl/min; 10 mM HEPES pH 8.0, 150 mM NaCl, 0.005% IGEPAL; 25 °C
[8] = molecular target: fluorescence-labelled NI3-3 (human) (UniProt P01730); assay: other fluorescence titration

Substance	Kd [1] [nM]	dH [1] [kcal/mol]	stoichiometry N [1]	further results
GST-NI3-1, CD4 cytoplasmic tail (37 residues) - five residue linker - Hck-SH3 (VSWSPD) (from UniProt P01730 419-458; P08631-1 78-138) (designed binder)	84	-8.51	1.09	
GST-NI3-3, CD4 cytoplasmic tail (CQC to SQS) fused to Hck-SH3 (VSWSPD) (from UniProt P01730 419-458; P08631-1 78-138) (designed binder)	88	-8.64	1.12	
GST-NI3-4, CD4 cytoplasmic tail (dileucine LL to AA) fused to Hck-SH3 (VSWSPD) (from UniProt P01730 419-458; P08631-1 78-138) (designed binder)	544	-8.55	0.97	
GST-NI3-5, wild type CD4 sequence attached with a glycine-serine-rich linker of 12 residues to Hck-SH3 (VSWSPD) (from UniProt P01730 419-458; P08631-1 78-138) (designed binder)	64	-8.22	1.06	
GST-NI3-8, CD4 cytoplasmic tail shortened to 23 residues fused N-terminally to Hck-SH3 (VSWSPD) (from UniProt P01730 419-458; P08631-1 78-138) (designed binder)	107	-8.2	0.93	
GST-NI3-9, Hck-SH3 (VSWSPD) - polyGly linker - CD4 cytoplasmic tail (from UniProt P08631-1;P01730) (designed binder)				Kd [2]: 1170 nM; dH [2]: -4.1 kcal/mol; stoichiometry N [2]: 0.85; Kd [3]: 26 nM; dH [3]: -11.4 kcal/mol; stoichiometry N [3]: 0.97
GST-NI3-10, Hck-SH3 (VSWSPD) - linker - CD4 cytoplasmic tail with the two cysteines mutated (from UniProt P08631-1 78-138; P01730 419-458) (designed binder)	27	-11.5	1.03	
GST-NI3-13, Hck-SH3 (VSWSPD) - linker - CD4 cytoplasmic tail truncated before the cysteines (from UniProt P08631-1 79-138; P01730 419-458) (designed binder)	41	-7.04	0.98	Kd [4]: 96 nM; dH [4]: -16.1 kcal/mol; stoichiometry N [4]: 1.06; Kd [5]: 149 nM; dH [5]: -13.8 kcal/mol; stoichiometry N [5]: 0.98; Kd [6]: 51 nM; dH [6]: -12.2 kcal/mol; stoichiometry N [6]: 1
HIV-1 NefSF2 (Δ1-44), C210A (from UniProt P03407 45-210) (domain or fragment)				Kd [7]: 28 nM
HIV-1 NefSF2 wild type, full length (1-210), C210A (from UniProt P03407) (natural protein)				Kd [8]: 37 nM
